In this experiment the target is Trichoplusia ni acetyl-coenzyme A carboxylase (Trichoplusia ni (endogenous in T. ni cells)). In words: cryo-EM structure; endogenous T. ni ACC (~2 uM) in 25 mM Hepes pH 8.0, 150 mM NaCl, 1 mM TCEP; refined with C2 symmetry to 3.12 Å; only the CT domain (1622-2396) modelled.

For orientation: stoichiometry N means the number of molecules, sites or subunits per partner or assembly.

The substance “Trichoplusia ni acetyl-coenzyme A carboxylase” returned a stoichiometry N of 2.

(Values after publication PMC11735997.)
